Data as given in the supplement of paper PMC5998384.

Legend:
[1] = test system: HeLa Kyoto; experiment: solubility in G1/S (NP-40 vs SDS abundance) (log2 ratio); higher = more soluble; conditions: cell cycle stage: G1/S
[2] = test system: HeLa Kyoto; experiment: melting temperature (median over replicates), in situ; higher = more thermally stable
[3] = test system: HeLa Kyoto; experiment: thermal stability score vs G1/S (z-score of summed log2 fold changes over temperatures); higher = more thermally stable than in G1/S
[4] = test system: HeLa Kyoto; experiment: solubility change mitosis vs G1/S (difference of NP-40 vs SDS log2 ratios) (log2 ratio difference); higher = more soluble in mitosis
[5] = cell cycle stage: early G1 (4.5 h after nocodazole release)
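Throughout, for melting temperature (median over replicates), in situ: HeLa Kyoto cells synchronized by double thymidine or nocodazole block, proteins quantified by TMT10plex mass spectrometry, three independent biological replicates.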
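Throughout, for solubility change mitosis vs G1/S (difference of NP-40 vs SDS log2 ratios): synchronized HeLa Kyoto cells (double thymidine block for G1/S, nocodazole release for mitosis), protein amounts in NP-40 versus SDS lysates quantified by mass spectrometry, three biological replicates.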
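Throughout, for solubility in G1/S (NP-40 vs SDS abundance): HeLa Kyoto cells arrested at G1/S by double thymidine block, proteins quantified by TMT10plex mass spectrometry in mild NP-40 versus SDS extracts, three biological replicates.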
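Throughout, for thermal stability score vs G1/S (z-score of summed log2 fold changes over temperatures): synchronized HeLa Kyoto cells, proteins quantified by TMT10plex mass spectrometry, three biological replicates, mitosis taken 0.5 h after nocodazole release, G1/S directly after double thymidine block.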

Sequence | solubility in G1/S (log2) [1] | melting temperature ([2]; cell cycle stage: G1/S) | melting temperature ([2]; cell cycle stage: mitosis) | thermal stability score [3, 5] | thermal stability score ([3]; cell cycle stage: mitosis) | solubility change mitosis (log2) [4]
MATIPDWKLQLLARRRQEEASVRGREKAERERLSQMPAWKRGLLERRRAKLGLSPGEPSPVLGTVEAGPPDPDESAVLLEAIGPVHQNRFIRQERQQQQQQQQRSEELLAERKPGPLEARERRPSPGEMRDQSPKGRESREERLSPRETRERRLGIGGAQELSLRPLEARDWRQSPGEVGDRSSRLSEAWKWRLSPGETPERSLRLAESREQSPRRKEVESRLSPGESAYQKLGLTEAHKWRPDSRESQEQSLVQLEATEWRLRSGEERQDYSEECGRKEEWPVPGVAPKETAELSETLTREAQGNSSAGVEAAEQRPVEDGERGMKPTEGWKWTLNSGKAREWTPRDIEAQTQKPEPPESAEKLLESPGVEAGEGEAEKEEAGAQGRPLRALQNCCSVPSPLPPEDAGTGGLRQQEEEAVELQPPPPAPLSPPPPAPTAPQPPGDPLMSRLFYGVKAGPGVGAPRRSGHTFTVNPRRSVPPATPATPTSPATVDAAVPGAGKKRYPTAEEILVLGGYLRLSRSCLAKGSPERHHKQLKISFSETALETTYQYPSESSVLEELGPEPEVPSAPNPPAAQPDDEEDEEELLLLQPELQGGLRTKALIVDESCRR [PPP1R18] | -0.53 | 52.5 °C | 52 °C | 0.778 | 0.67 | 0.428
MGTPGEGLGRCSHALIRGVPESLASGEGAGAGLPALDLAKAQREHGVLGGKLRQRLGLQLLELPPEESLPLGPLLGDTAVIQGDTALITRPWSPARRPEVDGVRKALQDLGLRIVEIGDENATLDGTDVLFTGREFFVGLSKWTNHRGAEIVADTFRDFAVSTVPVSGPSHLRGLCGMGGPRTVVAGSSDAAQKAVRAMAVLTDHPYASLTLPDDAAADCLFLRPGLPGVPPFLLHRGGGDLPNSQEALQKLSDVTLVPVSCSELEKAGAGLSSLCLVLSTRPHS [DDAH2] | 0.479 | 55.2 °C | 54 °C | 0.156 | 0.00237 | 0.0772
MSAAKENPCRKFQANIFNKSKCQNCFKPRESHLLNDEDLTQAKPIYGGWLLLAPDGTDFDNPVHRSRKWQRRFFILYEHGLLRYALDEMPTTLPQGTINMNQCTDVVDGEGRTGQKFSLCILTPEKEHFIRAETKEIVSGWLEMLMVYPRTNKQNQKKKRKVEPPTPQEPGPAKVAVTSSSSSSSSSSSIPSAEKVPTTKSTLWQEEMRTKDQPDGSSLSPAQSPSQSQPPAASSLREPGLESKEEESAMSSDRMDCGRKVRVESGYFSLEKTKQDLKAEEQQLPPPLSPPSPSTPNHRRSQVIEKFEALDIEKAEHMETNAVGPSPSSDTRQGRSEKRAFPRKRDFTNEAPPAPLPDASASPLSPHRRAKSLDRRSTEPSVTPDLLNFKKGWLTKQYEDGQWKKHWFVLADQSLRYYRDSVAEEAADLDGEIDLSACYDVTEYPVQRNYGFQIHTKEGEFTLSAMTSGIRRNWIQTIMKHVHPTTAPDVTSSLPEEKNKSSCSFETCPRPTEKQEAELGEPDPEQKRSRARERRREGRSKTFDWAEFRPIQQALAQERVGGVGPADTHEPLRPEAEPGELERERARRREERRKRFGMLDATDGPGTEDAALRMEVDRSPGLPMSDLKTHNVHVEIEQRWHQVETTPLREEKQVPIAPVHLSSEDGGDRLSTHELTSLLEKELEQSQKEASDLLEQNRLLQDQLRVALGREQSAREGYVLQATCERGFAAMEETHQKKIEDLQRQHQRELEKLREEKDRLLAEETAATISAIEAMKNAHREEMERELEKSQRSQISSVNSDVEALRRQYLEELQSVQRELEVLSEQYSQKCLENAHLAQALEAERQALRQCQRENQELNAHNQELNNRLAAEITRLRTLLTGDGGGEATGSPLAQGKDAYELEVLLRVKESEIQYLKQEISSLKDELQTALRDKKYASDKYKDIYTELSIAKAKADCDISRLKEQLKAATEALGEKSPDSATVSGYDIMKSKSNPDFLKKDRSCVTRQLRNIRSKSVIEQVSWDT [MPRIP] | -1.2 | 51.9 °C | 52.6 °C | -0.81 | -1.05 | 0.41
MLWPRLAAAEWAALAWELLGASVLLIAVRWLVRRLGPRPGGLGRSGTPVPPPSAAAAPASGEMTMDALLARLKLLNPDDLREEIVKAGLKCGPITSTTRFIFEKKLAQALLEQGGRLSSFYHHEAGVTALSQDPQRILKPAEGNPTDQAGFSEDRDFGYSVGLNPPEEEAVTSKTCSVPPSDTDTYRAGATASKEPPLYYGVCPVYEDVPARNERIYVYENKKEALQAVKMIKGSRFKAFSTREDAEKFARGICDYFPSPSKTSLPLSPVKTAPLFSNDRLKDGLCLSESETVNKERANSYKNPRTQDLTAKLRKAVEKGEEDTFSDLIWSNPRYLIGSGDNPTIVQEGCRYNVMHVAAKENQASICQLTLDVLENPDFMRLMYPDDDEAMLQKRIRYVVDLYLNTPDKMGYDTPLHFACKFGNADVVNVLSSHHLIVKNSRNKYDKTPEDVICERSKNKSVELKERIREYLKGHYYVPLLRAEETSSPVIGELWSPDQTAEASHVSRYGGSPRDPVLTLRAFAGPLSPAKAEDFRKLWKTPPREKAGFLHHVKKSDPERGFERVGRELAHELGYPWVEYWEFLGCFVDLSSQEGLQRLEEYLTQQEIGKKAQQETGEREASCRDKATTSGSNSISVRAFLDEDDMSLEEIKNRQNAARNNSPPTVGAFGHTRCSAFPLEQEADLIEAAEPGGPHSSRNGLCHPLNHSRTLAGKRPKAPRGEEAHLPPVSDLTVEFDKLNLQNIGRSVSKTPDESTKTKDQILTSRINAVERDLLEPSPADQLGNGHRRTESEMSARIAKMSLSPSSPRHEDQLEVTREPARRLFLFGEEPSKLDQDVLAALECADVDPHQFPAVHRWKSAVLCYSPSDRQSWPSPAVKGRFKSQLPDLSGPHSYSPGRNSVAGSNPAKPGLGSPGRYSPVHGSQLRRMARLAELAAL [ANKLE2] | 0.122 | 47.5 °C | 48.1 °C | 2.02 | 3.19 | 0.146
MRSSCVLLTALVALAAYYVYIPLPGSVSDPWKLMLLDATFRGAQQVSNLIHYLGLSHHLLALNFIIVSFGKKSAWSSAQVKVTDTDFDGVEVRVFEGPPKPEEPLKRSVVYIHGGGWALASAKIRYYDELCTAMAEELNAVIVSIEYRLVPKVYFPEQIHDVVRATKYFLKPEVLQKYMVDPGRICISGDSAGGNLAAALGQQFTQDASLKNKLKLQALIYPVLQALDFNTPSYQQNVNTPILPRYVMVKYWVDYFKGNYDFVQAMIVNNHTSLDVEEAAAVRARLNWTSLLPASFTKNYKPVVQTTGNARIVQELPQLLDARSAPLIADQAVLQLLPKTYILTCEHDVLRDDGIMYAKRLESAGVEVTLDHFEDGFHGCMIFTSWPTNFSVGIRTRNSYIKWLDQNL [NCEH1] | 0.156 | 57.4 °C | 57.7 °C | -0.627 | -0.868 | -0.118
